Data as given in US20040147443A1.

Columns and labels:
[1] = target: type-L calcium channels, verapamil site (rat cerebral cortex homogenates) (rat); experiment: specific binding of 0.5 nM (3H)(-)D 888 left with 1.0% Argireline; rat cerebral cortex membranes, scintillation counting; replicate 1
[2] = target: type-L calcium channels, verapamil site (rat cerebral cortex homogenates) (rat); experiment: specific binding of 0.5 nM (3H)(-)D 888 left with the MIXTURE of 1.0% Argireline and 1 x 10^-4 M magnesium gluconate; rat cerebral cortex membranes; replicate 2
[3] = target: type-L calcium channels, verapamil site (rat cerebral cortex homogenates) (rat); experiment: inhibition of specific binding of (3H)(-)D 888 by 5% Argireline; rat cerebral cortex membranes
[4] = target: type-L calcium channels, verapamil site (rat cerebral cortex homogenates) (rat); experiment: inhibition of specific binding of 0.5 nM (3H)(-)D 888 by 1.0% Argireline; rat cerebral cortex membranes, scintillation counting
[5] = target: type-L calcium channels, verapamil site (rat cerebral cortex homogenates) (rat); experiment: inhibition of specific binding of (3H)(-)D 888 by 10% Argireline; rat cerebral cortex membranes
[6] = target: type-L calcium channels, verapamil site (rat cerebral cortex homogenates) (rat); experiment: specific binding of 0.5 nM (3H)(-)D 888 left with 1.0% Argireline; rat cerebral cortex membranes, scintillation counting; replicate 3
[7] = target: type-L calcium channels, verapamil site (rat cerebral cortex homogenates) (rat); experiment: specific binding of 0.5 nM (3H)(-)D 888 left with the MIXTURE of 1.0% Argireline and 1 x 10^-4 M magnesium gluconate; rat cerebral cortex membranes
[8] = target: type-L calcium channels, verapamil site (rat cerebral cortex homogenates) (rat); experiment: specific binding of 0.5 nM (3H)(-)D 888 left with 1.0% Argireline; rat cerebral cortex membranes, scintillation counting; replicate 2
[9] = target: type-L calcium channels, verapamil site (rat cerebral cortex homogenates) (rat); experiment: specific binding of 0.5 nM (3H)(-)D 888 left with 1.0% Argireline; rat cerebral cortex membranes, scintillation counting
[10] = target: type-L calcium channels, verapamil site (rat cerebral cortex homogenates) (rat); experiment: specific binding of 0.5 nM (3H)(-)D 888 left with the MIXTURE of 1.0% Argireline and 1 x 10^-4 M magnesium gluconate; rat cerebral cortex membranes; replicate 1
[11] = target: type-L calcium channels, verapamil site (rat cerebral cortex homogenates) (rat); experiment: specific binding of 0.5 nM (3H)(-)D 888 left with the MIXTURE of 1.0% Argireline and 1 x 10^-4 M magnesium gluconate; rat cerebral cortex membranes; replicate 3
[12] = target: type-L calcium channels, verapamil site (rat cerebral cortex homogenates) (rat); experiment: inhibition of specific binding of 0.5 nM (3H)(-)D 888 by the MIXTURE of 1.0% Argireline and 1 x 10^-4 M magnesium gluconate; rat cerebral cortex membranes

% of binding [1]: 95.1%
% of binding [2]: 85.3%
mean percentage of inhibition [3]: 36%
Mean % of inhibition [4]: 4%
mean percentage of inhibition [5]: 52%
% of binding [6]: 99.9%
Mean % of binding [7]: 84%
% of binding [8]: 93.1%
Mean % of binding [9]: 96.1%
% of binding [10]: 81.6%
% of binding [11]: 85.1%
Mean % of inhibition [12]: 16%
Binder: Ac-EEMQRR-NH2
